Read-outs that look alike come from different tables or passages of the source. Blank lines part the entries; values can stand above or below the molecule they belong to. Non-standard residues stand in square brackets, D forms with d. Residues, ends and D or L forms follow the SMILES beside them. No end group written: not given here. Hyp = O=C(O)[C@@H]1C[C@@H](O)CN1
Assays:
[1] = CD temperature-dependent denaturation of triple helix; format: physicochemical; details: CD ellipticity at 225 nm, 20° C./hr, Boltzmann sigmoidal fit
Procedure: Circular Dichroism (CD) Spectroscopy. Synthetic collagen peptides were analyzed by CD spectroscopy, as described previously (18) with the following modifications. Briefly, peptides were dissolved in HBS to a concentration of 50 μM. CD spectra were collected on a Jasco J720 spectropolarimeter (Tokyo, Japan) from 190 to 240 nm, with bandwidth of 1 nm and integrated for 1 s at 0.2 nm intervals. Samples were measured at room temperature using cuvettes with 0.02 cm path length. For temperature-dependent denaturation analysis, […] of peptides were added to a thermostatically controlled cuvette with a 0.5 cm path length. Thermal transition profiles were recorded at 225 nm as described above with a temperature slope of 20° C./hr. To calculate the temperature melting points, the thermal transition profiles were fitted with Boltzmann sigmoidal model using the GraphPad Prism™ software (GraphPad Software Inc., San Diego, Calif.).

[2] = target: T1, α2I binding to type III collagen (Homo sapiens, UniProt P17301); test: Competition ELISA, inhibition of I domain binding to type III collagen; details: 100 μM peptide, 5 μM α2I, type III procollagen-coated wells
T1 construct: recombinant I domains from integrins α1 and α2 (α1I and α2I); made in house
T1 sequence (P17301 188-365 limits assumed): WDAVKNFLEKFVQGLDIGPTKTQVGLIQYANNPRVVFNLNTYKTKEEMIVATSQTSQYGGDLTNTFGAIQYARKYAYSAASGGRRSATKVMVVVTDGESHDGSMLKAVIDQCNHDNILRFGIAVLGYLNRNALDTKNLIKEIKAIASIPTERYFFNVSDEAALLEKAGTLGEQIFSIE

MRC-5 cells = test: Cell attachment assay on coated substrates; format: cell-based, human; details: increasing coating concentrations, 1.5×10^4 cells per well, 45 min, room temperature
Procedure: Reagents and Cell Culture. The human recombinant mature type III collagen used for cell attachment assays was purchased from FibroGen. All cell culture media components were purchased from Invitrogen. The human lung fibroblast cell line MRC-5 was purchased from American Type Culture Collection (ATCC) (Manassas, Va.). The cells were cultured and passaged in Dulbecco's modified Eagle's medium (DMEM) supplemented with 10% fetal bovine serum, 100 unit/ml penicillin and 100 μg/ml streptomycin. The cells were grown to subconfluence and passaged every 2-3 days.
Cell attachment assay. MRC-5 cells were starved overnight in serum deficient DMEM containing penicillin and streptomycin, then detached using 1 mM EDTA and 0.025% trypsin at 37° C. for 2 minutes. The cells were washed with PBS and resuspended in DMEM containing 0.2% BSA supplemented with 2 mM MgCl2. 100 μl of the cell suspension (˜1.5×10^5 cells/ml) were added to the microtiter wells coated with different concentrations of collagen or collagen peptides and blocked with PBS containing 0.5% (w/v) BSA. After incubation at room temperature for 45 min, the wells were washed with PBS. Attached cells were fixed with 3% p-formaldehyde for 10 min at room temperature. Following washing with cold Tris-buffered saline (TBS), pH 7.4, cells were fixed again in 20% methanol for 10 min and stained with 0.5% crystal violet for 5 min. The wells were thoroughly washed with distilled water and air-dried. Sodium citrate (0.1 M) was then added to the wells to dissolve the dye and the absorbance at 590 nm was measured. The maximum cell attachment on type III collagen was set to 100% and, residual attachment on BSA was set to 0%.
Adhesion of MRC-5 cells to peptide#1 (SEQ ID NO: 15) substrates. […] Wells in 96-well plates were coated with increasing concentrations of type III collagen, peptide #1 (SEQ ID NO: 15) or #2 (SEQ ID NO: 16) and 1.5×10^4 MRC-5 cells were added to each well. The plate was incubated for 45 min at room temperature and adhering cells were quantified as described herein.

[3] = target: T2, α1I binding to type III collagen (Homo sapiens, UniProt P56199); test: Competition ELISA, inhibition of I domain binding to type III collagen; details: 100 μM peptide, 0.5 μM α1I, type III procollagen-coated wells
T2 construct: recombinant I domains from integrins α1 and α2 (α1I and α2I); made in house
T2 sequence (P56199 161-360 limits assumed): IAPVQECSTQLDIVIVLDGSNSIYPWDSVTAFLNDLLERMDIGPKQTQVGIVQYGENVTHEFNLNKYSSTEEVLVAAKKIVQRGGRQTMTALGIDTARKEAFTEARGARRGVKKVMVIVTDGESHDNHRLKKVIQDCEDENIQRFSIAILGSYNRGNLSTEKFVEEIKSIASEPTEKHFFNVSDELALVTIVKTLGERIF

[4] = target: T3, α2I (recombinant I domain of integrin α2) (Homo sapiens, UniProt P17301); test: SPR (BIAcore 3000), I domain binding to immobilized fibrillar collagens; details: equilibrium analysis, 1 mM MgCl2
T3 construct: recombinant I domains from integrins α1 and α2 (α1I and α2I); made in house
T3 sequence (P17301 188-365 limits assumed): as the sequence (P17301 188-365 limits assumed) above
Procedure: Surface Plasmon Resonance (SPR) measurements. For the analyses of interactions between recombinant I domains and fibrillar collagens, SPR measurements were carried out at ambient temperature using the BIAcore 3000 system (BIAcore, Uppsala, Sweden) as described previously (21) with following modifications. First, purified recombinant human procollagens I and III (described above), or bovine mature type II collagen (Sigma) were immobilized on the flow cells of a CM5 chip resulting in 200-700 response units of immobilized protein.
SPR sensorgrams from different injections were overlaid using the BIAevaluation software (BIAcore AB). Data from the steady state portion of the sensorgrams were used to determine the binding affinities. Based on the correlation between the SPR response and change in protein mass on the surfaces of flow cells, values for the binding ratio, νbound, and the concentration of free protein, [P]free, were calculated using the equations described previously (21). Scatchard analysis was performed by plotting νbound/[P]free against νbound in which the negative reciprocal of the slope is the dissociation constant, KD. Nonlinear regression was also performed by plotting νbound against [P]free and fitted with the one-binding class or the two-binding class models using the GraphPad Prism™ software (GraphPad Software Inc., San Diego, Calif.). Results from the two models were compared with respect to the value of R^2 and the degree of freedom of the curve fit. The model that gave KD values outside the experimental data range was excluded. Experimental results were reproducible with at least three independent protein preparations.
The interactions between the two I domains and fibrillar collagens (types I, II and III) were examined by SPR. Solutions of 1 μM α1I or α2I were passed over chips containing immobilized collagen I, II, or III in the presence of 1 mM MgCl2.
The BIAcore 3000 system used in the present invention had higher sensitivity of detection which enabled examination of the interactions between α2I and collagens at a sub-micromolar concentration range. […] The binding affinities of α2I to the three types of collagen appeared to be slightly more variable.

[5] = first line per collagen in Table 2 (unit from b77), read-out: KD, high affinity binding class
[6] = second line per collagen in Table 2 (unit from b77), read-out: KD, low affinity binding class

Molecule: (GPO)11 (GPRGRT) [peptide #3, control peptide, reference compound]
inhibition of binding of α2I to type III collagen [2]: did not show any inhibitory activity
inhibition of binding of α1I to type III collagen [3]: did not show any inhibitory activity

Molecule: Collagen I: purified recombinant human procollagen I immobilized for SPR; type I collagen of the cited earlier study
Kd ([4]; first line per collagen in Table 2 (unit from b77), listed as type I collagen, read-out: KD, high affinity binding class): ~0.3 µM
Kd [4, 5]: 0.26 ± 0.08 µM
Kd ([4]; second line per collagen in Table 2 (unit from b77), listed as type I collagen, read-out: KD, low affinity binding class): ~4 µM
Kd [4, 6]: 3.99 ± 0.82 µM

Molecule: Collagen II: bovine mature type II collagen (Sigma)
Kd [4, 5]: 1.75 µM
Kd ([4]; second line per collagen in Table 2 (unit from b77), listed as type II collagen, read-out: KD, low affinity binding class): ~16.5 µM
Kd [4, 6]: 16.5 ± 3.89 µM

B1: Collagen III: recombinant human procollagen III in SPR; human recombinant mature type III collagen (FibroGen) in cell attachment assay (protein)
chain: QQEAVEGGCSHLGQSYADRDVWKPEPCQICVCDSGSVLCDDIICDDQELDCPNPEIPFGECCAVCPQPPTAPTRPPNGQGPQGPKGDPGPPGIPGRNGDPGIPGQPGSPGSPGPPGICESCPTGPQNYSPQYDSYDVKSGVAVGGLAGYPGPAGPPGPPGPPGTSGHPGSPGSPGYQGPPGEPGQAGPSGPPGPPGAIGPSGPAGKDGESGRPGRPGERGLPGPPGIKGPAGIPGFPGMKGHRGFDGRNGEKGETGAPGLKGENGLPGENGAPGPMGPRGAPGERGRPGLPGAAGARGNDGARGSDGQPGPPGPPGTAGFPGSPGAKGEVGPAGSPGSNGAPGQRGEPGPQGHAGAQGPPGPPGINGSPGGKGEMGPAGIPGAPGLMGARGPPGPAGANGAPGLRGGAGEPGKNGAKGEPGPRGERGEAGIPGVPGAKGEDGKDGSPGEPGANGLPGAAGERGAPGFRGPAGPNGIPGEKGPAGERGAPGPAGPRGAAGEPGRDGVPGGPGMRGMPGSPGGPGSDGKPGPPGSQGESGRPGPPGPSGPRGQPGVMGFPGPKGNDGAPGKNGERGGPGGPGPQGPPGKNGETGPQGPPGPTGPGGDKGDTGPPGPQGLQGLPGTGGPPGENGKPGEPGPKGDAGAPGAPGGKGDAGAPGERGPPGLAGAPGLRGGAGPPGPEGGKGAAGPPGPPGAAGTPGLQGMPGERGGLGSPGPKGDKGEPGGPGADGVPGKDGPRGPTGPIGPPGPAGQPGDKGEGGAPGLPGIAGPRGSPGERGETGPPGPAGFPGAPGQNGEPGGKGERGAPGEKGEGGPPGVAGPPGGSGPAGPPGPQGVKGERGSPGGPGAAGFPGARGLPGPPGSNGNPGPPGPSGSPGKDGPPGPAGNTGAPGSPGVSGPKGDAGQPGEKGSPGAQGPPGAPGPLGIAGITGARGLAGPPGMPGPRGSPGPQGVKGESGKPGANGLSGERGPPGPQGLPGLAGTAGEPGRDGNPGSDGLPGRDGSPGGKGDRGENGSPGAPGAPGHPGPPGPVGPAGKSGDRGESGPAGPAGAPGPAGSRGAPGPQGPRGDKGETGERGAAGIKGHRGFPGNPGAPGSPGPAGQQGAIGSPGPAGPRGPVGPSGPPGKDGTSGHPGPIGPPGPRGNRGERGSEGSPGHPGQPGPPGPPGAPGPCCGGVGAAAIAGIGGEKAGGFAPYYGDEPMDFKINTDEIMTSLKSVNGQIESLISPDGSRKNPARNCRDLKFCHPELKSGEYWVDPNQGCKLDAIKVFCNMETGETCISANPLNVPRKHWWTDSSAEKKHVWFGESMDGGFQFSYGNPELPEDVLDVHLAFLRLLSSRASQNITYHCKNSIAYMDQASGNVKKALKLMGSNEGEFKAEGNSKFTYTVLEDGCTKHTGEWSKTVFEYRTRKAVRLPIVDIAPYDIGGPDQEFGVDVGPVCFL
modifications: non-natural residues
notes: recombinant human procollagen III in SPR; human recombinant mature type III collagen (FibroGen) in cell attachment assay
adhesion of MRC-5 cells to coated substrate (MRC-5 cells): could support adhesion of MRC-5 cells in a dose-dependent manner
Kd ([4]; first line per collagen in Table 2 (unit from b77), listed as type III collagen, read-out: KD, high affinity binding class): ~0.3 µM
Kd [4, 5]: 0.33 ± 0.03 µM
Kd ([4]; second line per collagen in Table 2 (unit from b77), listed as type III collagen, read-out: KD, low affinity binding class): ~14.5 µM
Kd [4, 6]: 14.5 ± 3.41 µM

The next lines start with results.

melting temperature (Tm) of triple helix [1]: 41 °C
Molecule: N=C(N)NCCC[C@H](NC(=O)[C@H](CCC(=O)O)NC(=O)CNC(=O)[C@@H]1C[C@@H](O)CN1C(=O)[C@H](CCCNC(=N)N)NC(=O)CNC(=O)[C@@H]1C[C@@H](O)CN1C(=O)[C@@H]1CCCN1C(=O)CNC(=O)[C@@H]1C[C@@H](O)CN1C(=O)[C@@H]1CCCN1C(=O)CNC(=O)[C@@H]1C[C@@H](O)CN1C(=O)[C@@H]1CCCN1C(=O)CN)C(=O)NCC(=O)N1CCC[C@H]1C(=O)N1C[C@H](O)C[C@H]1C(=O)NCC(=O)N1CCC[C@H]1C(=O)N1C[C@H](O)C[C@H]1C(=O)NCC(=O)N1CCC[C@H]1C(=O)N1C[C@H](O)C[C@H]1C(N)=O [GROGER] (H-GP[Hyp]GP[Hyp]GP[Hyp]GR[Hyp]GERGP[Hyp]GP[Hyp]GP[Hyp]-NH2; N-terminus and C-terminus assumed)

inhibition of binding of α2I to type III collagen [2]: 60%
inhibition of binding of α1I to type III collagen [3]: 40%
Molecule: (GPO)3GAOGERGROGLO(GPO)3 (GP[Hyp]GP[Hyp]GP[Hyp]GA[Hyp]GERGR[Hyp]GL[Hyp]GP[Hyp]GP[Hyp]GP[Hyp]) [peptide #2]
adhesion of MRC-5 cells to coated substrate (MRC-5 cells): could not
